Assay results taken from the supplement of paper PMC9732359.
± gives the uncertainty stated by the source.

Assay: protein stability index of a GFP-peptide fusion (yeast GPS) (PSI 1-4); higher = more stable; sorted into four equal gates, so the index is relative within each strain
Procedure, shortened: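 Plasmids isolated from each sorting gate were PCR-amplified and Illumina-sequenced, and barcodes assigned the reads to strains. The gates, four of equal size, were set by GFP/Cherry fluorescence ratio on mid-log cultures in leucine-free medium. These cultures were yeast carrying a pooled library of tiled 17-residue yeast protein peptides fused downstream of GFP on a plasmid that also expresses Cherry. The protein stability index is the sum of every gate's read frequency times its gate number.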

| Sequence | protein stability index (doa10∆) | protein stability index (pdr5∆) | protein stability index (san1∆) | protein stability index (ubr1∆) |
| --- | --- | --- | --- | --- |
| NCEYEDPPNEGDPFDYK [RPB3] | 3.16 ± 0.13 | 3.4 ± 0.12 | 3.36 ± 0.11 | 3.14 ± 0.06 |
| LNSYWVNQDSTYKYFEV [RPL15A] | 3.23 ± 0.061 | 3.27 ± 0.076 | 3.32 ± 0.041 | 3.2 ± 0.058 |
| EEATTEEAGEEEAKEEV [RPS0A] | 2.69 ± 0.11 | 2.78 ± 0.17 | – | – |
| NYVAVGDVSNLPYLDEL [QCR2] | 3.13 ± 0.087 | 3.19 ± 0.096 | 2.97 ± 0.099 | 3.18 ± 0.051 |
| AVEQLAGCKIDNVDDIG [YDL088C/ASM4] | 2.86 ± 0.075 | 2.64 ± 0.071 | 2.56 ± 0.08 | 2.61 ± 0.047 |
| HNVFSKEQTIQLPSKFT [RPN14] | 2.41 ± 0.11 | 2.79 ± 0.085 | 2.43 ± 0.12 | 2.64 ± 0.099 |
| LKQNAIRARIPFYGSYT [SRP54] | 2.82 ± 0.077 | 2.8 ± 0.063 | 2.5 ± 0.087 | 2.89 ± 0.062 |
| VSNPLIQRFFALHYLVP [COB] | 1.86 ± 0.054 | 1.88 ± 0.059 | 2.32 ± 0.072 | 1.2 ± 0.041 |
| GDLLNAEVQSLFQDGSA [RRP4] | 2.18 ± 0.096 | 2.74 ± 0.13 | 2.94 ± 0.068 | 2.37 ± 0.096 |
| LKRLAWQYIVIDEAHRI [ISW2] | 1.77 ± 0.077 | 1.78 ± 0.1 | 2.45 ± 0.077 | 1.13 ± 0.09 |
| DEDESQNIAQSSNQSAP [HRT1] | 2.99 ± 0.07 | 3.15 ± 0.074 | 3.14 ± 0.051 | 3.19 ± 0.043 |
| QPSDVKPTSHKQLQQPK [SIR4] | 2.98 ± 0.096 | 3.15 ± 0.088 | 2.99 ± 0.084 | 3.06 ± 0.076 |
| CLFTKCLEDPEKPFNEN [POP4] | 2.67 ± 0.15 | 3.02 ± 0.15 | 2.7 ± 0.2 | 2.96 ± 0.079 |
| QQQQQNQQQQNQQPQQQ [SWI1] | 2.99 ± 0.041 | 3.06 ± 0.043 | 2.88 ± 0.032 | 2.85 ± 0.038 |
| EEYVINLLKVSVDICNN [ECM29] | 2.15 ± 0.064 | 2.58 ± 0.063 | 2.7 ± 0.048 | 2.65 ± 0.053 |
| VLTYPEKVTRYNRHKLQ [RPO31] | 2.1 ± 0.055 | 1.6 ± 0.048 | 2.32 ± 0.052 | 1.43 ± 0.05 |
| LELVNTPLTENILIASL [YCG1] | 1.66 ± 0.052 | 1.62 ± 0.042 | 1.93 ± 0.083 | 2.27 ± 0.037 |
| GILGNKAQAKMDKRAKT [RPL8B] | 3.58 ± 0.12 | 3.48 ± 0.15 | 3.4 ± 0.058 | 3.63 ± 0.079 |
| HKVTQKKDIKIGTNDLF [SIR4] | 2.63 ± 0.12 | 2.61 ± 0.11 | 2.7 ± 0.072 | 2.27 ± 0.13 |
| IRNEGSDAEEEEGEYKN [ISW2] | – | – | – | 3.44 ± 0.11 |
| KLFTTNELMRWPIVQKT [RPN5] | 1.79 ± 0.096 | 1.77 ± 0.078 | – | 1.48 ± 0.044 |
| FLVRYACEPTAEKFVPI [SIR3] | 2.55 ± 0.23 | 2.9 ± 0.097 | 2.75 ± 0.11 | 2.91 ± 0.1 |
| SQPSKKSFANHTEDEQI [SIR4] | 2.81 ± 0.059 | 2.84 ± 0.052 | 3.08 ± 0.059 | 2.83 ± 0.052 |
| QGDEALSVDDIRGAVGN [RTT102] | 3.35 ± 0.096 | 3.49 ± 0.12 | 3.24 ± 0.059 | 3.41 ± 0.085 |
| VLIANDVDPIELVVFLP [RPL8A] | 2.42 ± 0.24 | 2.85 ± 0.077 | 3.13 ± 0.087 | 3 ± 0.058 |
| EAVKQAAKIIYLAHEDN [PRE10] | 2.75 ± 0.19 | 3.02 ± 0.12 | 3.3 ± 0.22 | 2.55 ± 0.14 |
| SPELKAELRPLQFKSIR [RPS7A] | 2.91 ± 0.11 | 3.54 ± 0.11 | 2.61 ± 0.14 | 3.07 ± 0.12 |

| Sequence | protein stability index (doa10∆) | protein stability index (pdr5∆) | protein stability index (san1∆) | protein stability index (ubr1∆) |
| --- | --- | --- | --- | --- |
| NWSKEDLQKLLKGIQEF [SWI3] | 3.27 ± 0.068 | 3.07 ± 0.057 | 3.09 ± 0.05 | 3.33 ± 0.055 |
| TSLATSAGQPNLLLSAS [ASC1] | 2.03 ± 0.06 | 1.93 ± 0.06 | 2.03 ± 0.062 | 1.99 ± 0.049 |
| VTADTVILFDSDWNPQA [ISW2] | 3.08 ± 0.071 | 2.76 ± 0.058 | 2.81 ± 0.089 | 2.52 ± 0.044 |
| KYHNDLIEKEIQPKITE [SMC1] | 3.11 ± 0.13 | 3.05 ± 0.083 | 2.71 ± 0.073 | 3.07 ± 0.059 |
| DKLICSIDPPGCVDIDD [DIS3] | 3.33 ± 0.068 | 3.11 ± 0.062 | 2.78 ± 0.068 | 3.14 ± 0.091 |
| IVGQKNLNRAFNGDQVI [DIS3] | 3.12 ± 0.078 | 2.83 ± 0.087 | 2.76 ± 0.057 | 2.98 ± 0.078 |
| QPAKEKGVTEKDAVDYS [RRP6] | 3.2 ± 0.21 | 3.15 ± 0.17 | 3.27 ± 0.091 | 3.42 ± 0.062 |
| ASSGPRYIVGVRNSVDR [RPT4] | 1.29 ± 0.12 | 1.42 ± 0.19 | – | 1.37 ± 0.092 |
| LGVTYSSPTLATGFGAH [PRE4] | 2.41 ± 0.078 | 2.29 ± 0.12 | 2.48 ± 0.087 | 1.62 ± 0.12 |
| QIPVYDTFDGSDLRVLS [FAS1] | 2.7 ± 0.081 | 2.92 ± 0.059 | 2.53 ± 0.069 | 2.69 ± 0.058 |
| INFKSREAIRPGHEMED [AAR2] | 3.33 ± 0.097 | 3.28 ± 0.091 | 3.44 ± 0.058 | 3.38 ± 0.084 |
| AHRGIRHFWGLRVRGQH [RPS18A] | 2.82 ± 0.1 | 2.73 ± 0.083 | 2.44 ± 0.081 | 2.66 ± 0.053 |
| PPPAPHNLHPQIGQVPL [SNF5] | 2.96 ± 0.059 | 2.94 ± 0.053 | 2.8 ± 0.045 | 3.01 ± 0.042 |
| GVEYRLRLRISRKRNEE [RPL31A] | 1.5 ± 0.12 | 1.26 ± 0.12 | – | 1.18 ± 0.22 |
| AVSKDPLLTKRKDLRDK [DIS3] | 2.97 ± 0.14 | 3.41 ± 0.13 | 2.78 ± 0.22 | 3.25 ± 0.14 |
| NDHSKSANPKKTTITRV [SWI3] | 2.9 ± 0.11 | 3.09 ± 0.092 | 3.14 ± 0.08 | 2.97 ± 0.051 |
| QSLDTIGGSDAAFEKRY [RPO21] | 3.25 ± 0.095 | 3.38 ± 0.074 | 3.37 ± 0.049 | 3.25 ± 0.06 |
| IDKLMLSPSDQFAPAFL [SSN2] | 1.99 ± 0.068 | 2.24 ± 0.1 | 2.1 ± 0.13 | 2.5 ± 0.09 |
| LDKHERKWMEEKADYER [YIL149C/MLP2] | 2.8 ± 0.094 | 3.35 ± 0.15 | 2.66 ± 0.13 | 3.25 ± 0.12 |
| YMHDTELNYFVGCKNLE [GRR1] | 2.92 ± 0.085 | 2.78 ± 0.081 | 3.08 ± 0.079 | 3.21 ± 0.046 |
| INKEIFHHWLVEFINKM [SRB8] | 1.49 ± 0.17 | 1.76 ± 0.12 | 3.03 ± 0.053 | 1.6 ± 0.088 |
| LVDLVSHFSPDIKAAVD [ITC1] | 1.95 ± 0.063 | 1.99 ± 0.071 | 2.09 ± 0.076 | 2.54 ± 0.05 |
| SVSLVDEFPSELSDSDR [SIR4] | 2.68 ± 0.071 | 2.57 ± 0.058 | 2.64 ± 0.067 | 2.16 ± 0.057 |
| DMPCDVLAKRMANLSQI [SCL1] | 1.71 ± 0.09 | 1.4 ± 0.064 | 1.6 ± 0.17 | 1.61 ± 0.076 |
| TKLIGVLILLHAERDLA [SRP68] | 1.28 ± 0.078 | 2.26 ± 0.17 | 2.48 ± 0.088 | 2.78 ± 0.098 |
| NYNSTSRSTEKKNDMNT [SIR4] | 2.33 ± 0.061 | 2.48 ± 0.058 | 2.61 ± 0.079 | 2.55 ± 0.049 |
